Data: article PMC7611231, “Allosteric Activation of the ATPase Activity of the Escherichia coli RhlB RNA Helicase*” (The Journal of biological chemistry, 2007)

B1: N-terminal His6-tagged RNase E residues 696-762 (domain or fragment, E. coli, UniProt P21513 696-762, looked up)
chain: ALNVEEQSVQETEQEERVRPVQPRRKQRQLNQKVRYEQSVAEEAVVAPVVEETVAAEPIVQEAPAPR
notes: Cloned BamHI/SalI in the first cloning site of pRSF-Duet-1; also called RNase E peptide; source: E. coli, pRSF-Duet-1, purified (Ni-NTA, S200); also co-expressed with RhlB from pRneRhlB in E. coli BL21(DE3), co-purified (Ni-NTA, SP, S200); not shown: His6, N-terminal, kept
B2: Escherichia coli DEAD box RNA helicase RhlB, wild type (enzyme, E. coli, UniProt P0A8J8 1-421, looked up)
chain: MSKTHLTEQKFSDFALHPKVVEALEKKGFHNCTPIQALALPLTLAGRDVAGQAQTGTGKTMAFLTSTFHYLLSHPAIADRKVNQPRALIMAPTRELAVQIHADAEPLAEATGLKLGLAYGGDGYDKQLKVLESGVDILIGTTGRLIDYAKQNHINLGAIQVVVLDEADRMYDLGFIKDIRWLFRRMPPANQRLNMLFSATLSYRVRELAFEQMNNAEYIEVEPEQKTGHRIKEELFYPSNEEKMRLLQTLIEEEWPDRAIIFANTKHRCEEIWGHLAADGHRVGLLTGDVAQKKRLRILDEFTRGDLDILVATDVAARGLHIPAVTHVFNYDLPDDCEDYVHRIGRTGRAGASGHSISLACEEYALNLPAIETYIGHSIPVSKYNPDALMTDLPKPLRLTRPRTGNGPRRTGAPRNRRRSG
notes: The same untagged protein from two vectors (pET11a alone; second cloning site of pRSF-Duet-1, NdeI/XhoI, in pRneRhlB); also called WT RhlB; Helicase B; source: E. coli BL21(DE3), pET11a, purified (published procedure plus S200 size exclusion)

Experiments:
[1] = target: RNase E 628-843 (Escherichia coli) (UniProt P21513); conditions: cited from earlier work
RhlB S381A (E. coli) [2] = target: RhlB S381A (E. coli)
[3] = target: B2; experiment: native MS; nanoflow ESI under non-dissociating conditions; co-expressed complex after size exclusion chromatography, 5-20 uM, 250 mM ammonium acetate; MS/MS of the +15 ion; conditions: both partners purified
RhlB H320D (E. coli) = experiment: ITC; 300 uM RNase E-(696-762) in the syringe titrated into 20 uM WT RhlB or variant in the cell; 25 C; 50 mM potassium phosphate pH 7.4, 100 mM NaCl, 1 mM dithiothreitol (methods; the table's caption says 100 mM KPi, 50 mM NaCl); 1:1 model; Ka are lower limits
RhlB S381A (E. coli) [4] = experiment: as above
[5] = target: B2; experiment: as above; conditions: both partners purified
[6] = target: B1; experiment: SEC; co-expressed in E. coli from a di-cistronic vector; His6-RNase E-(696-762) held on Ni-NTA, then SP column and S200 size exclusion; fractions on SDS-PAGE; conditions: partners not purified

Chain of RNase E 628-843 (Escherichia coli) (P21513 628-843): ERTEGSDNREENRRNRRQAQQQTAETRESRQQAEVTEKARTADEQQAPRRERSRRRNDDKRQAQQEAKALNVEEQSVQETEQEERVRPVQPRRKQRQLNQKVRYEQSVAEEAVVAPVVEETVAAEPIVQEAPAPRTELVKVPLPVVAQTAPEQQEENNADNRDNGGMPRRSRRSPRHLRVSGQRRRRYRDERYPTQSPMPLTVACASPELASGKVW

Molecule: RhlB (from UniProt P0A8J8)
- Kd [1]: 50 nM

Molecule: B1
- ATPase activity of S381A RhlB with RNase E-(696-762) and bulk S. cerevisiae RNA (S381A RhlB alone: ≤0.5) (mol Pi/min/mol protein) (RhlB S381A (E. coli) [2]): 9.4
- stoichiometry N [3]: 1
- Ka (RhlB H320D (E. coli)): > 7e+07 M⁻¹
- dH (RhlB H320D (E. coli)): -29 kcal/mol
- stoichiometry N (RhlB H320D (E. coli)): 0.83
- Ka (RhlB S381A (E. coli) [4]): > 8e+07 M⁻¹
- dH (RhlB S381A (E. coli) [4]): -23.3 kcal/mol
- stoichiometry N (RhlB S381A (E. coli) [4]): 1.2
- Ka [5]: ≥ 1.1e+08 M⁻¹
- dH [5]: -27.6 kcal/mol
- stoichiometry N [5]: 0.92

Molecule: B2
- stoichiometry N [6]: ~1
